Columns and labels:
[1] = biological target: T1, hIL-6R recombinant protein (plate-coated, Example 5) (human, UniProt P08887 20-358, limits assumed); test: competition ELISA on hIL-6R-coated plate presaturated with competitor control antibody; test antibody 50 ng/ml
T1 construct: also called antigen
T1 sequence: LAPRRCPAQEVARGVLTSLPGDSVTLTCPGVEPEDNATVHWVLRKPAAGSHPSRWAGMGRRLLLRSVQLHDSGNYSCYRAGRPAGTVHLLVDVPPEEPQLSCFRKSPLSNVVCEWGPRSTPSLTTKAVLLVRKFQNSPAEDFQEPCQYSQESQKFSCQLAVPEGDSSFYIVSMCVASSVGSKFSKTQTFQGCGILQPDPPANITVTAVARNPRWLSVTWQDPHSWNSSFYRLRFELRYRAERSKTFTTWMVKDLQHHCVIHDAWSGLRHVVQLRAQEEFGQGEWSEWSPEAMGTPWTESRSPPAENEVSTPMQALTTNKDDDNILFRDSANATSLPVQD
Procedure: An antibody binding competition immunoassay was performed using as a control humanized antibody to human IL-6R. Briefly, a 96-well immunosorbent plate was coated with 20 ng per well hIL-6R recombinant protein overnight at 4° C. […] After one hour of additional binding, the free antibody was washed away and the plate-bound antibody was detected with HRP-conjugated goat anti-mouse IgG or IgA, polyclonal antibody and the plate was developed using chromatic HRP substrates and absorbance at 450 nm was recorded.

[2] = biological target: T2, recombinant hIL-6R protein, monomeric form (human, UniProt P08887 20-358); test: SPR (BIAcore), antibody captured on goat anti-mouse Fc, monomeric IL-6R 1.25-40 nM injected
T2 construct: also called monomeric hIL-6R; Human IL6R
T2 sequence: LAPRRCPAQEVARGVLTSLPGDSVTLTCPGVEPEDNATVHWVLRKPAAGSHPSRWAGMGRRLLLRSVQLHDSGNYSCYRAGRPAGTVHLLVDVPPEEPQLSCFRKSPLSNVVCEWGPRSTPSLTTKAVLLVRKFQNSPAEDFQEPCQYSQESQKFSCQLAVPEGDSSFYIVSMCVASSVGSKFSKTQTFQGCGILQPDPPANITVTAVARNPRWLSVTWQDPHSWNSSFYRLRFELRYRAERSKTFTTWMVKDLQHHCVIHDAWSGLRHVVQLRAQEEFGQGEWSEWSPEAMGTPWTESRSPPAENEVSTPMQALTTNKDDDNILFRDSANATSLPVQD
Procedure: (§1) Four antibodies were tested for cross-reactivity to monkey IL-6R recombinant protein using BIAcore™ technology. Briefly, a biosensor chip on which goat anti-mouse Fc polyclonal antibody was immobilized was used to present anti-hIL-6R monoclonal antibodies to a density of about 75 RU. […] The binding of the receptor to the antibody and the dissociation of the bound complex were monitored in real-time.

[3] = biological target: T2, recombinant hIL-6R protein, monomeric …; test: SPR (BIAcore), captured antibody, monomeric hIL-6R
Procedure: as §1

[4] = biological target: T3, hIL-6R on hIL-6-responsive human cells (XG-1 myeloma line, HepG2 hepatoma line) (human, UniProt P08887 20-468); test: cell-based or functional assay
T3 sequence (looked up): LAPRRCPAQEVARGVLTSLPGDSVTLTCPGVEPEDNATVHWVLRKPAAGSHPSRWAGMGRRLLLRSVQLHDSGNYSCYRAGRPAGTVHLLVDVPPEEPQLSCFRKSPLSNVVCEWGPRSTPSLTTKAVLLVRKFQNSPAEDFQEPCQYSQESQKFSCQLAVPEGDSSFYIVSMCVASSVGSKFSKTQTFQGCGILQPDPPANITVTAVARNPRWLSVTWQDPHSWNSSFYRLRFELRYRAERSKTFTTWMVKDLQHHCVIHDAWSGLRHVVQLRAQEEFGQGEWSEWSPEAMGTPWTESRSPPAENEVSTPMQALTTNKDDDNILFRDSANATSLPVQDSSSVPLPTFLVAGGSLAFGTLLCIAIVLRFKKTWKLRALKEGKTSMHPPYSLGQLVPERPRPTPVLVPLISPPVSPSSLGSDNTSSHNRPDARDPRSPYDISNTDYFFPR

hIL-6R-hFc [5] = biological target: T4, hIL-6R-hFc (human, UniProt P08887 20-358); test: competition ELISA: antibody premixed with serial dilutions of hIL-6R-hFc, free antibody detected on hIL-6R-hFc-coated plate
T4 construct: also called dimeric hIL-6R; Dimer; not shown: human Fc (hFc)
T4 sequence: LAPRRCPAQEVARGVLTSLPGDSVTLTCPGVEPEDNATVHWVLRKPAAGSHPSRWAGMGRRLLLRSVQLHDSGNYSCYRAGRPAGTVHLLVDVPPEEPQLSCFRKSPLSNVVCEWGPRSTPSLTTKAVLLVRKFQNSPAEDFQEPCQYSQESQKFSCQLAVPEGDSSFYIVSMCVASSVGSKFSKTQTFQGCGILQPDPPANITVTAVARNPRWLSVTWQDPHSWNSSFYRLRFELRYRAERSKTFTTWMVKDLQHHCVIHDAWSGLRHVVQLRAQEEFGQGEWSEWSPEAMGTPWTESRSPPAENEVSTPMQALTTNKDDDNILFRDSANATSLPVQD

[6] = biological target: T3, hIL-6R on hIL-6-responsive human cells …; test: cell-based or functional assay; remark: listed apart in the source
[7] = biological target: T5, Recombinant monkey monomeric IL-6R protein (Macaca fascicularis, extracellular domain) (Macaca fascicularis, UniProt P08887 21-330 (human entry)); test: SPR (BIAcore), antibody captured on goat anti-mouse Fc, monomeric monkey IL-6R injected
T5 construct: also called Monkey IL6R; monkey IL-6R
T5 chain: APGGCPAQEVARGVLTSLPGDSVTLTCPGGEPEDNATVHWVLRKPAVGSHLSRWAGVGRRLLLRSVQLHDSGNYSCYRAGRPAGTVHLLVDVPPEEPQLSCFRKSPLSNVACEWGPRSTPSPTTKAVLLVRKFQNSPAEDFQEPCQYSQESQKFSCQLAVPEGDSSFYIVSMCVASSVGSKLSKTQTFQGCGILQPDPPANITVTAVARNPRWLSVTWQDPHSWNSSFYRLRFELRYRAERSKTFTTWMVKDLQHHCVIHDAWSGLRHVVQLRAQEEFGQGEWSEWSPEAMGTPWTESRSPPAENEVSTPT
Procedure: as §1

hIL-6R-hFc [8] = biological target: T4, hIL-6R-hFc; test: SPR (BIAcore): hIL-6R-hFc captured, antibody injected, then 50 nM hIL-6; percent reduction in hIL-6 binding
hIL-6R-hFc [9] = biological target: T4, hIL-6R-hFc; test: SPR (BIAcore), antibody captured on anti-mouse IgG surface, dimeric hIL-6R
Procedure: (§2) More specifically, the affinity of the antibodies for human IL-6R was measured using a BIAcore® 2000 or BIAcore® 3000. The antibody was captured on an anti-mouse IgG surface and exposed to various concentrations of recombinant hIL-6R protein either in monomeric or dimeric form. Kinetic analysis using BIAevaluation™ software was performed to obtain the association and dissociation rate constants.

[10] = biological target: T2, recombinant hIL-6R protein, monomeric …; test: SPR (BIAcore), antibody captured on anti-mouse IgG surface, monomeric hIL-6R
Procedure: as §2

[11] = biological target: T1, hIL-6R recombinant protein …; test: SPR (BIAcore) competition on hIL-6R; competitor: control antibody
[12] = biological target: T2, recombinant hIL-6R protein, monomeric …; test: Kinexa solution-phase competition immunoassay, monomeric hIL-6R
[13] = biological target: T2, recombinant hIL-6R protein, monomeric …; test: SPR (BIAcore), captured mouse-IgG antibody, monomeric hIL-6R 1.56-12.5 nM
Source text: Briefly, a biosensor chip on which goat anti-mouse Fc polyclonal antibody was immobilized was used to present anti-hIL-6R monoclonal antibodies to a density of about 75 RU. […] The binding of the receptor to the antibody and the dissociation of the bound complex were monitored in real-time. Both association rate constant (ka) and dissociate rate constant (kd) were obtained, and KD calculated (Table 4).
The binding affinity to monomeric hIL-6R of four antibodies having mouse IgG, human IgG1 or human IgG4 (wild-type and modified) were determined using BIAcore™ as described above except a goat anti-human Fc polyclonal antibody surface was used to capture hIgG antibodies.

hIL-6R-hFc [14] = biological target: T4, hIL-6R-hFc; test: blocking ELISA: 100 pM hIL-6R-hFc premixed with varied antibody, free hIL-6R-hFc captured on hIL-6-coated plate
Procedure: This plate was used to capture free hIL-6R-hFc from antibody sample solutions, and the amount of captured hIL-6R-hFc was quantified according to the standard curve. The sample solutions were composed of a constant amount of hIL-6R-hFc recombinant protein (100 pM) and varying amounts of antibody, either in crude hybridoma condition medium or as purified antibody protein, ranging from 0 to about 50 nM in serial dilutions. The antibody-antigen mixtures were incubated at room temperature for ˜2 hours to allow antibody-antigen binding to reach equilibrium. […] After 1 hour binding, the plate was washed and bound hIL-6R-hFc was detected using HRP-conjugated goat anti-hFc polyclonal antibodies (Jackson Immuno Research), and developed using TMB substrate (BD Pharmigen).

[15] = biological target: T2, recombinant hIL-6R protein, monomeric …; test: SPR (BIAcore), captured antibody, monomeric hIL-6R; remark: listed apart in the source
Procedure: as §2

hIL-6R-hFc [16] = biological target: T4, hIL-6R-hFc; test: SPR (BIAcore), captured antibody, dimeric hIL-6R
Procedure: as §2

B1: VV1G4-7 (antibody, IgG2a, V domains shown)
VH: QVQLVQSGAEVKEPGASVKVSCKASGYTFTSYDIIWVRQATGQGLEWMGWMNPNSGNTGYTQNLQGRVTLTRNTSITTVYMELSSLSSEDTAVYYCARDYSSHYYGLDVWGQGTTVTVSS
VL: DIQLTQSPSFLSTSIGDRVTITCWASQDISNYLAWYQQKPGKAPKLLIFVASTLQSGVPSRFSGSGSGTEFTLTISSLQPEDFATYYCQQFNSYPLTFGGGTKVEIK
notes: Human variable regions with mouse constant region
% reduction of binding by control antibody [1]: 3% | Kd [2]: 0.24 nM | koff [2]: 6.18e-05 s⁻¹ | kon [2]: 257000 M⁻¹ s⁻¹ | Kd [3]: 0.241 nM | HepG2/Stat3 Luciferase activity IC50 [4]: 0.578 nM | XG-1 cell proliferation Inhibition IC50 [4]: 1.8 nM | IC50 (hIL-6R-hFc [5]): 0.041 nM | HepG2/STAT3 luciferase assay IC50 [6]: 0.578 nM | binding result [7]: no binding (tested: 1.25-40 nM) | hIL6/hIL6R Binding Inhibition (%) (hIL-6R-hFc [8]): 34% | Kd (hIL-6R-hFc [9]): 0.07 nM | Kd [10]: 0.225 nM | % reduction of binding by control antibody [11]: 12% | Kd [12]: 0.197 nM | Kd [13]: 0.225 nM | koff [13]: 7.66e-05 s⁻¹ | kon [13]: 341000 M⁻¹ s⁻¹ | IC50 (hIL-6R-hFc [14]): 1.1 nM

B2: 248982-13-1-E5 (antibody, V domains shown)
VH: QVQLVQSGGDLVQPGRSLRLSCAASGFTFDDYAMHWVRQTPGKGLEWVSGISWNSGAIGYADSVKGRFTISRDNAKNSLYLQMNSLRAEDTALYYCTKEEVGATVDYFYFYGMDVWGQGTTVTVSS
VL: EIVMTQSPATLSLSPGERATLSCWASQSVSNYLAWYQQKPGQAPRLLIYDASNRATGIPARFSGSGSGTDFTLTISSLEPEDFAVYYCQQRSNWPTFGQGTKVEIK
IC50 (hIL-6R-hFc [5]): 0.36 nM | Kd [15]: 0.987 nM | Kd (hIL-6R-hFc [16]): 0.785 nM
